Assay [1] has as its target T1, human CD137 on DO11.10-hCD137 cells (human, UniProt Q07011 24-255). Kind of assay: cell-based or functional assay.
The target of assay [2] is T1, human CD137 on DO11.10-hCD137 cells. Kind of assay: cell binding at 10 nM to DO11.10-hCD137 cells, against the parent FS20-22-49AA/FS30-5.
The target is the same in assay [3]. Kind of assay: cell binding at 10 nM to DO11.10-hCD137 cells, against the parent FS20-22-49AA/FS30-16.
The target of another assay is T2, cCD137-mFc-Avi (cynomolgus, Homodimer through the mouse Fc (one chain given). In the biotinylated version one biotin sits on the Avi-tag lysine of each monomer.).
T2 construct: dimer; biotinylated version used on streptavidin plates; also called cyno CD137-mFc-Avi; cyno CD137-mFc
T2 chain: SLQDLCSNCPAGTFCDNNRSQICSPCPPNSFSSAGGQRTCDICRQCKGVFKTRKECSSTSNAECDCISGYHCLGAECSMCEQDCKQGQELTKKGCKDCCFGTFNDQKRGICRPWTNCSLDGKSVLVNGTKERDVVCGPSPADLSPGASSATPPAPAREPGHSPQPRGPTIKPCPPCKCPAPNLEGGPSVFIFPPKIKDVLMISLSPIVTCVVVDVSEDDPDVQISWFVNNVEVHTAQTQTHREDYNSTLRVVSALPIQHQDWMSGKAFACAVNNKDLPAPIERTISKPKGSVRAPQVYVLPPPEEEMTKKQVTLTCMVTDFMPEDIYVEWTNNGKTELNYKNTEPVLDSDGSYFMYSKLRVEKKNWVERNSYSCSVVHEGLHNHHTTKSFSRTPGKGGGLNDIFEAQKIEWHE
Kind of assay: SPR (Biacore 3000), mAb captured by anti-human Fc, dimeric CD137-mFc as analyte, 1:1 model with mass transfer. On the procedure:
Briefly, 25 µg/ml anti-human IgG (Fc) antibody (GE Healthcare, Human Antibody Capture Kit, BR100839) was coated on flow cells 1, 2, 3 and 4 of a Biacore sensor chip CM5 (GE Healthcare, BR100012) for 3 minutes at 5 µl/min, achieving a final response of approximately 4300 RU. The mAb² clones, diluted in HBS-EP buffer (GE Healthcare, BR100188) at 0.5 µg/ml, were injected individually on flows cell 2, 3 and 4 at 30 µl/min to achieve a response of approximately 80 RU. […] Regeneration was achieved by injecting 3 M magnesium chloride (GE Healthcare, Human Antibody Capture Kit, BR100839) for 30 seconds at a rate of 30 µl/min. […] These slightly less stringent conditions were used to assess whether this molecule could bind to cyno CD137-mFc. Subtracted data (flow cell 2-flow cell 1, flow cell 3-flow cell 1, or flow cell 4-flow cell 1) were analysed using BIAevaluation 3.2 Software (GE Healthcare) to identify binding using the model 1:1 binding with mass transfer, with refractive index (RI) constant 0.

For the next assay, the target named is T3, TNFRSF1B-Fc (human, UniProt P20333 23-257).
T3 construct: bought; also called TNFRSF1B (R&D Systems, 726-R2-050); not shown: Fc part of the bought fusion
T3 sequence (looked up): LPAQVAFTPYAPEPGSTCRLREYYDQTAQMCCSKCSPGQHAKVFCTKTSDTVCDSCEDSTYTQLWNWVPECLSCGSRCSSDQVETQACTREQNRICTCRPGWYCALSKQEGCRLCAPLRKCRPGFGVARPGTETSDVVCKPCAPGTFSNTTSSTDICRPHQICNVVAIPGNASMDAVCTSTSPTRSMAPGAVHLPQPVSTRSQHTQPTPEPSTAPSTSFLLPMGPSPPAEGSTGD
Kind of assay: SPR, antigen immobilised on CM5 chip. Here is the method: (§1) Flow cell 1 was run as a blank immobilisation. The five FS20-22-49AA/FS30 mAb² were diluted to 1 μM and 1 nM in 1×HBS-EP buffer (GE Healthcare, product code BR100188), allowed to flow over the chip for 3 min and then allowed to dissociate for 4 minutes. A 30-second injection of 10 mM glycine pH 1.5 was used for regeneration. […] Binding levels were determined at the end of the association phase and compared.
(§2) Specificity was tested against the same five human TNFRSF members closely-related to CD137 (TNFRSF1A, TNFRSF1B, GITR, NGFR and CD40) plus an additional closely-related TNFRSF member, human DR6 (DR6-Fc; R&D Systems, 144-DR-100), using SPR as described in Example 3.1.

Another assay concerns the target T4, TNFRSF1A-Fc (human, UniProt P19438 30-211, limits assumed).
T4 construct: bought; also called TNFRSF1A (R&D Systems, 372-RI-050/CF); not shown: Fc part of the bought fusion
T4 sequence (looked up): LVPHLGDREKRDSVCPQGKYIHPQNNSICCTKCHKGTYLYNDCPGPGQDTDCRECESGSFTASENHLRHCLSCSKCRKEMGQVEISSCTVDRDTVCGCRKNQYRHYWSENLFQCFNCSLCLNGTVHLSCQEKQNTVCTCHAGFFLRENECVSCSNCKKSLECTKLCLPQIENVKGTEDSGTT
Kind of assay: SPR, antigen immobilised on CM5 chip. Here is the method: as §1, §2

The next assay addresses T5, DR6-Fc (human, UniProt O75509 42-349, limits assumed).
T5 construct: bought; also called human DR6 (R&D Systems, 144-DR-100); not shown: Fc part of the bought fusion
T5 sequence (looked up): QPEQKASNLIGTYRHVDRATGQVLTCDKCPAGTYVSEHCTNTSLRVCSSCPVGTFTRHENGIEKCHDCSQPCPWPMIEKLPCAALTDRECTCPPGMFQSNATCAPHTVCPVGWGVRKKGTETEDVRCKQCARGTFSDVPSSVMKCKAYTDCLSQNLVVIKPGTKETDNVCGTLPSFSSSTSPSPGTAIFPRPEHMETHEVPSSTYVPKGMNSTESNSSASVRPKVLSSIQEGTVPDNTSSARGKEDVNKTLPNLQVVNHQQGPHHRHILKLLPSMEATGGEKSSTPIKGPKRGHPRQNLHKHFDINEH
Kind of assay: SPR, antigen immobilised on CM5 chip. On the procedure:
as §1, §2

The target in a further assay is T6, GITR-hFc-Avi (human, UniProt Q9Y5U5 26-161).
T6 construct: in-house produced; not shown: hFc and Avi part
T6 sequence: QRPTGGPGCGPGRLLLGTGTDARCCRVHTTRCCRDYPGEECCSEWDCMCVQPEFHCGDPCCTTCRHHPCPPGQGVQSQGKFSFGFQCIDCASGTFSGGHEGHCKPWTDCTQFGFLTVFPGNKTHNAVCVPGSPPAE
Kind of assay: SPR, antigen immobilised on CM5 chip. Here is the method: as §1, §2

In a further assay the target is T7, CD40-mFc (human, UniProt P25942 21-193).
T7 construct: in-house produced; not shown: mFc part
T7 sequence (P25942 21-193): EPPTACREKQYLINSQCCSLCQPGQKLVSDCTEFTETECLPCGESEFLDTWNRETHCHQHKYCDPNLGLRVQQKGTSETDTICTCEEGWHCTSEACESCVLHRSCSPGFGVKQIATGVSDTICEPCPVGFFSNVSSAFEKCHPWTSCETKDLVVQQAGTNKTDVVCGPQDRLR
Kind of assay: SPR, antigen immobilised on CM5 chip. Here is the method:
as §1, §2

Another assay addresses T8, NGFR-Fc (human, UniProt P08138 29-250).
T8 construct: bought; also called NGFR (R&D Systems, 367-NR-050/CF); not shown: Fc part of the bought fusion
T8 sequence (looked up): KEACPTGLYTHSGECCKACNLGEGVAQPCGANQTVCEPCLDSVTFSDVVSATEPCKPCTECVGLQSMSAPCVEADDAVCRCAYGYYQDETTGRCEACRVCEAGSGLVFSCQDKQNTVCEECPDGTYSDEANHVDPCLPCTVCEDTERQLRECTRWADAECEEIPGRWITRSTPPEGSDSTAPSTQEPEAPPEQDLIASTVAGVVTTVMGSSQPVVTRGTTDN
Kind of assay: SPR, antigen immobilised on CM5 chip. On the procedure: as §1, §2

Numbering of substitutions follows the chain as printed.

T1 sequence (Q07011 24-255): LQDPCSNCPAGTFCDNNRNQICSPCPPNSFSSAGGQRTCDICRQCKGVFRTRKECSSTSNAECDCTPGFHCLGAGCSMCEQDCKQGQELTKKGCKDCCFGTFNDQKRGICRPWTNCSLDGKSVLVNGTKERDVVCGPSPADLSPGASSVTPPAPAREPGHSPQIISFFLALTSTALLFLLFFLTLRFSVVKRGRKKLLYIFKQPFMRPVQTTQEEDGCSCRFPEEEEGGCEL

B1: FS20-22-49AA/FS30-5 variant, Methionine (100H) to L (bispecific antibody, V domains shown)
VH: EVQLLESGGGLVQPGGSLRLNCAASGFTFSSYAMSWVRQAPGKGLEWVSAISGSGGSTYYADSVKGRFTISRDNSKNTLYLQMNSLRAEDTAVYYCARSYDKYWGSSMYSGLDYWGQGTLVTVSS
VL: EIVLTQSPGTLSLSPGERATLSCRASQSVSSSYLAWYQQKPGQAPRLLIYGASSRATGIPDRFSGSGSGTDFTLTISRLEPEDFAVYYCQQYYSYYPVTFGQGTKVEIKR
Take B1: in [1], the “DO11.10-hCD137 T cell activation assay EC50 (nM), crosslinked” value worked out at 5.9 nM. The “fold change of cell binding at 10 nM against the parent clone” value in [2] is under 1.3 fold.

B2: FS20-22-49AA/FS30-16 variant, Methionine (100A) to P (bispecific antibody, V domains shown)
VH: EVQLLESGGGLVQPGGSLRLSCAASGFTFSNYAMHWVRQAPGKGLEWVSTIDPTDGATNYADSVKGRFTISRDNSKNTLYLQMNSLRAEDTAVYYCARSKYYTYPQYVALDYWGQGTLVTVSS
VL: B1 VL with Y92G, Y93S, S94R, Y95F, Y96F, V98I
notes: Single-site variant of the parent mAb^2 FS20-22-49AA/FS30-16
In the case of B2, the “fold change of cell binding at 10 nM against the parent clone” value in [3] is under 1.6 fold.

B3: G1/MOR7480.1 (antibody, human IgG1, lambda)
heavy: not shown
light: SYELTQPPSVSVSPGQTASITCSGDNIGDQYAHWYQQKPGQSPVLVIYQDKNRPSGIPERFSGSNSGNTATLTISGTQAMDEADYYCATYTGFGSLAVFGGGTKLTVLGQPKAAPSVTLFPPSSEELQANKATLVCLISDFYPGAVTVAWKADSSPVKAGVETTTPSKQSNNKYAASSYLSLTPEQWKSHRSYSCQVTHEGSTVEKTVAPTECS
notes: human IgG1 without LALA; also called MOR7480.1 in IgG1 format
The molecule B3 returned a Kd with cCD137-mFc-Avi of 0.34 nM. The binding result with TNFRSF1B-Fc, with TNFRSF1A-Fc, with DR6-Fc, in the assay with GITR-hFc-Avi, with CD40-mFc and with NGFR-Fc was “no binding” in each case.
